Reference: PMC4730206, “The solution configurations of inactive and activated DntR have implications for the sliding dimer mechanism of LysR transcription factors” (Scientific Reports, 2016)

Key:
[1] = biological target: T1, DntR (DntR-His6) (Burkholderia sp. DNT, UniProt Q7WT50); assay: Thermofluor thermal stability assay; type: binding; conditions: 100 µM sodium salicylate; inducer; apo-protein reference Tm in the 2nd table, row 4
T1 construct: full-length, C-terminal His6 tag (DntR-His6), recombinant, modelled to H303, homotetramer
T1 sequence (Q7WT50 1-301): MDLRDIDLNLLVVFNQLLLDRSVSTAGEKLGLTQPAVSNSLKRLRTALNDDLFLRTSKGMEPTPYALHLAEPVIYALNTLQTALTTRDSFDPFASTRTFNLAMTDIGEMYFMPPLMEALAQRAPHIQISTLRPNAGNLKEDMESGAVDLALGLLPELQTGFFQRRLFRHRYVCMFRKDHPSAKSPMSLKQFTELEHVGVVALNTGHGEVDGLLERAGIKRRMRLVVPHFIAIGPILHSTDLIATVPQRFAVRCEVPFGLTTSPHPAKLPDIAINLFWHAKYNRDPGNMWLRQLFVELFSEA
Excerpt: Thermofluor thermal stability assay on DntR (DntR-His6)

[2] = biological target: DntR-His6 from Burkholderia sp. (wild type) (Burkholderia sp.) (UniProt Q7WT50); assay: SAXS; static SAXS without inducer, in 1 M NaCl, 2 mM MgSO4, 1 mM DTT, 17% glycerol, 25 mM NaH2PO4-NaOH pH 8.0; apo-DntR at 3, 1 and 0.5 mg/mL (repeated as SEC-SAXS on Superdex 200), H169T-DntR at 0.7 mg/mL; fits to tetramer models
[3] = biological target: DntR-His6 from Burkholderia sp. (wild type) (Burkholderia sp.) (UniProt Q7WT50); assay: crystal structure; apo-DntR crystals, hanging drops at 18 °C, 0.2 M sodium potassium tartrate, 0.1 M Tris-HCl pH 8.0, 5% PEG 6000; space group P6(5)22, two monomers in the asymmetric unit, tetramer from two symmetry-related dimers
[4] = biological target: DntR-His6 from Burkholderia sp. (wild type) (Burkholderia sp.) (UniProt Q7WT50); assay: SAXS; static SAXS of apo-DntR pre-incubated with 100 μM sodium salicylate (holo-DntR); repeated as SEC-SAXS with 5 mM salicylate; rigid body modelling of a tetramer
[5] = biological target: H169T-DntR-His6 (Burkholderia sp.) (UniProt Q7WT50); assay: crystal structure; H169T-DntR crystals, 0.2 M sodium tartrate, 0.2 M potassium thiocyanate, 0.5 mM sodium salicylate, 0.1 M Tris pH 8.5, 20% PEG 8000; thiocyanate bound; space group P6(5)22, dimer in the asymmetric unit, tetramer from two symmetry-related dimers
[6] = biological target: H169T-DntR-His6 (Burkholderia sp.) (UniProt Q7WT50); assay: SAXS; static SAXS without inducer, in 1 M NaCl, 2 mM MgSO4, 1 mM DTT, 17% glycerol, 25 mM NaH2PO4-NaOH pH 8.0; apo-DntR at 3, 1 and 0.5 mg/mL (repeated as SEC-SAXS on Superdex 200), H169T-DntR at 0.7 mg/mL; fits to tetramer models

Compound: O=C(O)c1ccccc1O [salicylate]
- Tm (^oC) [1]: 51 °C

Compound: DntR-His6 from Burkholderia sp. (wild type) (from UniProt Q7WT50 1-301) (natural protein)
- stoichiometry N [2]: 4
- stoichiometry N [3]: 4
- stoichiometry N [4]: 4

Compound: H169T-DntR-His6 (from UniProt Q7WT50 1-301) (natural protein)
- stoichiometry N [5]: 4
- stoichiometry N [6]: 4
